Data from doi:10.1101/545814 (bioRxiv, 2019).

T1: MBP-Epe1 (wild-type, recombinant, full length) (S. pombe, UniProt O94603 1-948)
T1 sequence: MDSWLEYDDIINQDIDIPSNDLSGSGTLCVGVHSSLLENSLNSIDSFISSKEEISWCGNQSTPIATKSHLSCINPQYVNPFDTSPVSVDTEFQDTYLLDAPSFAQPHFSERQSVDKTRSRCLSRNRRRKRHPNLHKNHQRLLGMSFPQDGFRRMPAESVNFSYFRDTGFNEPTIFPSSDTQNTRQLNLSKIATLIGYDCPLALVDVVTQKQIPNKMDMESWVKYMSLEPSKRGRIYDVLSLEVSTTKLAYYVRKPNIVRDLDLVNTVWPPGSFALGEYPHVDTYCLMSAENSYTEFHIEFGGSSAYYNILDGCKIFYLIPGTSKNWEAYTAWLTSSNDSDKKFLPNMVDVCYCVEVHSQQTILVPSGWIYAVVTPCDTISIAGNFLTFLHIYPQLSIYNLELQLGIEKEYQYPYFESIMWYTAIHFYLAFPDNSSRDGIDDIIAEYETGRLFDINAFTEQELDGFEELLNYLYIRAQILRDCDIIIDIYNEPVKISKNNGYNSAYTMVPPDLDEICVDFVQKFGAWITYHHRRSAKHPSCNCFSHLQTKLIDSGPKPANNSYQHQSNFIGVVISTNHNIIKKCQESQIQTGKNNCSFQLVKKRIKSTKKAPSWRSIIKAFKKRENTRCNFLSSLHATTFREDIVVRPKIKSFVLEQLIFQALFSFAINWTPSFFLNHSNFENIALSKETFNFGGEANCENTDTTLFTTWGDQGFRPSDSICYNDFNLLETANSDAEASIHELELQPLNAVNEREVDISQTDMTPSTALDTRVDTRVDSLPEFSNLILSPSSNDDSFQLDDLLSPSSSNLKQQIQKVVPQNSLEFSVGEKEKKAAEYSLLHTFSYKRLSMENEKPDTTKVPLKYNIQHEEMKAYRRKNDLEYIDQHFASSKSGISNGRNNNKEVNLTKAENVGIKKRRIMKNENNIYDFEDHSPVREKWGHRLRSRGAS

T2: MBP-Epe1^434-948 (S. pombe, UniProt O94603 434-948)
T2 sequence: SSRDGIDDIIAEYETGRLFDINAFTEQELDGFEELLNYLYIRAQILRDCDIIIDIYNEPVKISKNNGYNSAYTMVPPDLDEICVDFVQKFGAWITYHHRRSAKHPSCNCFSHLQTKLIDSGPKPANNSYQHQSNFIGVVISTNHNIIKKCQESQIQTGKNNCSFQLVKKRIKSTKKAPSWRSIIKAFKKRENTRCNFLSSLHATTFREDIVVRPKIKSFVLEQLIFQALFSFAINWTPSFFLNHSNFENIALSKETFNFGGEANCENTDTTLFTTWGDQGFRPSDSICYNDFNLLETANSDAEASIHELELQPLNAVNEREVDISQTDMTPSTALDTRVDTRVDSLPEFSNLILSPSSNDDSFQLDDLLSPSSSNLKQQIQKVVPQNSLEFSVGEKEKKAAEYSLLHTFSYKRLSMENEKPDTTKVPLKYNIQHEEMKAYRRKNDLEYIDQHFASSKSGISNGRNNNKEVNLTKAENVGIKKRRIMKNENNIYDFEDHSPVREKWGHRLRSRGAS

B1: MBP-Epe1^434-600 (domain or fragment)
chain: SSRDGIDDIIAEYETGRLFDINAFTEQELDGFEELLNYLYIRAQILRDCDIIIDIYNEPVKISKNNGYNSAYTMVPPDLDEICVDFVQKFGAWITYHHRRSAKHPSCNCFSHLQTKLIDSGPKPANNSYQHQSNFIGVVISTNHNIIKKCQESQIQTGKNNCSFQLV
B2: 3X-FLAG Swi6^HP1 W104A (natural protein)
chain: MKKGGVRSYRRSSTSKRSVIDDDSEPELPSMTKEAIASHKADSGSSDNEVESDHESKSSSKKLKENAKEEEGGEEEEEDEYVVEKVLKHRMARKGGGYEYLLKAEGYDDPSDNTWSSEADCSGCKQLIEAYWNEHGGRPEPSKRKRTARPKKPEAKEPSPKSRKTDEDKHDKDSNEKIEDVNEKTIKFADKSQEEFNENGPPSGQPNGHIESDNESKSPSQKESNESEDIQIAETPSNVTPKKKPSPEVPKLPDNRELTVKQVENYDSWEDLVSSIDTIERKDDGTLEIYLTWKNGAISHHPSTITNKKCPQKMLQFYESHLTFRENE
B3: 3X FLAG-Swi6^HP1 (recombinant, E. coli) (natural protein)
chain: MKKGGVRSYRRSSTSKRSVIDDDSEPELPSMTKEAIASHKADSGSSDNEVESDHESKSSSKKLKENAKEEEGGEEEEEDEYVVEKVLKHRMARKGGGYEYLLKWEGYDDPSDNTWSSEADCSGCKQLIEAYWNEHGGRPEPSKRKRTARPKKPEAKEPSPKSRKTDEDKHDKDSNEKIEDVNEKTIKFADKSQEEFNENGPPSGQPNGHIESDNESKSPSQKESNESEDIQIAETPSNVTPKKKPSPEVPKLPDNRELTVKQVENYDSWEDLVSSIDTIERKDDGTLEIYLTWKNGAISHHPSTITNKKCPQKMLQFYESHLTFRENE
B4: 3X FLAG-Swi6^HP1 purified from fission yeast cells (natural protein)
chain: MKKGGVRSYRRSSTSKRSVIDDDSEPELPSMTKEAIASHKADSGSSDNEVESDHESKSSSKKLKENAKEEEGGEEEEEDEYVVEKVLKHRMARKGGGYEYLLKWEGYDDPSDNTWSSEADCSGCKQLIEAYWNEHGGRPEPSKRKRTARPKKPEAKEPSPKSRKTDEDKHDKDSNEKIEDVNEKTIKFADKSQEEFNENGPPSGQPNGHIESDNESKSPSQKESNESEDIQIAETPSNVTPKKKPSPEVPKLPDNRELTVKQVENYDSWEDLVSSIDTIERKDDGTLEIYLTWKNGAISHHPSTITNKKCPQKMLQFYESHLTFRENE

Legend:
Test in all cases: pull-down
[1] = molecular target: B3
[2] = molecular target: T1, MBP-Epe1 (wild-type, recombinant, full …)
MBP-Epe1^434-948 = molecular target: T2, MBP-Epe1^434-948

Row | binding result [1] | binding result [2] | binding result (MBP-Epe1^434-948) | Binder
1 | binds |  |  | B1
2 |  | binds |  | B2
3 |  | binds | binds | B3
4 |  | binds |  | B4
